± gives the standard deviation of the averaged measurements.
Experiment: total protein half-life in vivo (active degradation + dilution); higher = more stable protein
[1] = E. coli NCM3722 delta-clpP delta-lon delta-hslV, growth: N-lim chemostat, doubling time 6 h
[2] = E. coli NCM3722 delta-clpP, growth: N-lim chemostat, doubling time 6 h
[3] = E. coli NCM3722 delta-hslV, growth: N-lim chemostat, doubling time 6 h
[4] = E. coli NCM3722 delta-lon, growth: N-lim chemostat, doubling time 6 h
[5] = E. coli NCM3722 delta-smpB, growth: N-lim chemostat, doubling time 6 h
[6] = wild type E. coli NCM3722, growth: C-lim chemostat, doubling time 3 h
[7] = wild type E. coli NCM3722, growth: C-lim chemostat, doubling time 6 h
[8] = wild type E. coli NCM3722, growth: C-lim chemostat, doubling time 12 h
[9] = wild type E. coli NCM3722, growth: N-lim chemostat, doubling time 6 h
[10] = wild type E. coli NCM3722, growth: N-lim chemostat, doubling time 12 h
[11] = wild type E. coli NCM3722, growth: P-lim chemostat, doubling time 6 h
[12] = wild type E. coli NCM3722, growth: P-lim chemostat, doubling time 12 h

Question: For “MTNITKRSLVAAGVLAALMAGNVALAADVPAGVTLAEKQTLVRNNGSEVQSLDPHKIEGVPESNISRDLFEGLLVSDLDGHPAPGVAESWDNKDAKVWTFHLRKDAKWSDGTPVTAQDFVYSWQRSVDPNTASPYASYLQYGHIAGIDEILEGKKPITDLGVKAIDDHTLEVTLSEPVPYFYKLLVHPSTSPVPKAAIEKFGEKWTQPGNIVTNGAYTLKDWVVNERIVLERSPTYWNNAKTVINQVTYLPIASEVTDVNRYRSGEIDMTNNSMPIELFQKLKKEIPDEVHVDPYLCTYYYEINNQKPPFNDVRVRTALKLGMDRDIIVNKVKAQGNMPAYGYTPPYTDGAKLTQPEWFGWSQEKRNEEAKKLLAEAGYTADKPLTINLLYNTSDLHKKLAIAASSLWKKNIGVNVKLVNQEWKTFLDTRHQGTFDVARAGWCADYNEPTSFLNTMLSNSSMNTAHYKSPAFDSIMAETLKVTDEAQRTALYTKAEQQLDKDSAIVPVYYYVNARLVKPWVGGYTGKDPLDNTYTRNMYIVKH”, which “total protein half-life in vivo” value [1] is on record?
Answer: Its value is 5.05 ± 0.41 h.

Question: What about the “total protein half-life in vivo” value [2] of the same sequence?
Answer: The value was 5.96 ± 0.98 h.

Question: What about the “total protein half-life in vivo” value [3] of the same sequence?
Answer: The value was 6.62 ± 0.85 h.

Question: What about the “total protein half-life in vivo” value [4] of the same sequence?
Answer: Its value is 6.25 ± 0.66 h.

Question: What about the “total protein half-life in vivo” value [5] of the same sequence?
Answer: Its value is 6.01 ± 0.075 h.

Question: And the “total protein half-life in vivo” value [6]?
Answer: The value was 3.13 ± 0.1 h.

Question: And the “total protein half-life in vivo” value [7]?
Answer: Its value is 6.215 ± 0.047 h.

Question: What about the “total protein half-life in vivo” value [8] of the same sequence?
Answer: The value was 12.7 ± 1.9 h.

Question: What about the “total protein half-life in vivo” value [9] of the same sequence?
Answer: The value was 6.22 ± 0.13 h.

Question: What about the “total protein half-life in vivo” value [10] of the same sequence?
Answer: Its value is 12 ± 0.33 h.

Question: And the “total protein half-life in vivo” value [11]?
Answer: Its value is 6.03 ± 0.071 h.

Question: And the “total protein half-life in vivo” value [12]?
Answer: The value was 12.3 ± 0.35 h.

Question: With “MTINDSAISEQGMCEEEQVARIAWFYYHDGLTQSEISDRLGLTRLKVSRLLEKGHQSGIIRVQINSRFEGCLEYETQLRRQFSLQHVRVIPGLADADVGGRLGIGAAHMLMSLLQPQQMLAIGFGEATMNTLQRLSGFISSQQIRLVTLSGGVGSYMTGIGQLNAACSVNIIPAPLRASSADIARTLKNENCVKDVLLAAQAADVAIVGIGAVSQQDDATIIRSGYISQGEQLMIGRKGAVGDILGYFFDAKGDVVTNIKIHNELIGLPLSALKTIPVRVGVAGGENKAEAIAAAMKGGYINALVTDQDTAAAILRS” as the sequence, how does the “total protein half-life in vivo” value [1] read?
Answer: The value was 5.64 ± 1.1 h.

Question: What about the “total protein half-life in vivo” value [2] of the same sequence?
Answer: The value was 5.69 ± 0.67 h.

Question: And the “total protein half-life in vivo” value [3]?
Answer: Its value is 4.76 ± 0.47 h.

Question: What about the “total protein half-life in vivo” value [4] of the same sequence?
Answer: Its value is 4.58 ± 0.45 h.

Question: What about the “total protein half-life in vivo” value [5] of the same sequence?
Answer: The value was 4.6 ± 0.058 h.

Question: And the “total protein half-life in vivo” value [6]?
Answer: The value was 2.88 ± 0.2 h.

Question: And the “total protein half-life in vivo” value [7]?
Answer: The value was 4.551 ± 0.016 h.

Question: And the “total protein half-life in vivo” value [8]?
Answer: The value was 7.78 h.

Question: What about the “total protein half-life in vivo” value [9] of the same sequence?
Answer: The value was 4.64 ± 0.19 h.

Question: And the “total protein half-life in vivo” value [10]?
Answer: The value was 8.2 ± 0.58 h.

Question: What about the “total protein half-life in vivo” value [11] of the same sequence?
Answer: Its value is 5.08 h.

Question: With “MLEEYRKHVAERAAEGIAPKPLDANQMAALVELLKNPPAGEEEFLLDLLTNRVPPGVDEAAYVKAGFLAAIAKGEAKSPLLTPEKAIELLGTMQGGYNIHPLIDALDDAKLAPIAAKALSHTLLMFDNFYDVEEKAKAGNEYAKQVMQSWADAEWFLNRPALAEKLTVTVFKVTGETNTDDLSPAPDAWSRPDIPLHALAMLKNAREGIEPDQPGVVGPIKQIEALQQKGFPLAYVGDVVGTGSSRKSATNSVLWFMGDDIPHVPNKRGGGLCLGGKIAPIFFNTMEDAGALPIEVDVSNLNMGDVIDVYPYKGEVRNHETGELLATFELKTDVLIDEVRAGGRIPLIIGRGLTTKAREALGLPHSDVFRQAKDVAESDRGFSLAQKMVGRACGVKGIRPGAYCEPKMTSVGSQDTTGPMTRDELKDLACLGFSADLVMQSFCHTAAYPKPVDVNTHHTLPDFIMNRGGVSLRPGDGVIHSWLNRMLLPDTVGTGGDSHTRFPIGISFPAGSGLVAFAAATGVMPLDMPESVLVRFKGKMQPGITLRDLVHAIPLYAIKQGLLTVEKKGKKNIFSGRILEIEGLPDLKVEQAFELTDASAERSAAGCTIKLNKEPIIEYLNSNIVLLKWMIAEGYGDRRTLERRIQGMEKWLANPELLEADADAEYAAVIDIDLADIKEPILCAPNDPDDARPLSAVQGEKIDEVFIGSCMTNIGHFRAAGKLLDAHKGQLPTRLWVAPPTRMDAAQLTEEGYYSVFGKSGARIEIPGCSLCMGNQARVADGATVVSTSTRNFPNRLGTGANVFLASAELAAVAALIGKLPTPEEYQTYVAQVDKTAVDTYRYLNFNQLSQYTEKADGVIFQTAV” as the sequence, how does the “total protein half-life in vivo” value [1] read?
Answer: The value was 5.12 ± 0.25 h.

Question: And the “total protein half-life in vivo” value [2]?
Answer: Its value is 3.86 ± 0.1 h.

Question: And the “total protein half-life in vivo” value [3]?
Answer: The value was 3.56 ± 0.021 h.

Question: And the “total protein half-life in vivo” value [4]?
Answer: The value was 3.3 ± 0.063 h.

Question: What about the “total protein half-life in vivo” value [5] of the same sequence?
Answer: The value was 2.96 ± 0.046 h.

Question: And the “total protein half-life in vivo” value [6]?
Answer: The value was 2.579 ± 0.021 h.

Question: And the “total protein half-life in vivo” value [7]?
Answer: Its value is 4.71 ± 0.057 h.

Question: What about the “total protein half-life in vivo” value [8] of the same sequence?
Answer: Its value is 7.2 ± 0.21 h.

Question: What about the “total protein half-life in vivo” value [9] of the same sequence?
Answer: Its value is 3.578 ± 0.02 h.

Question: And the “total protein half-life in vivo” value [10]?
Answer: The value was 4.92 ± 0.14 h.

Question: What about the “total protein half-life in vivo” value [11] of the same sequence?
Answer: Its value is 3.56 ± 0.094 h.

Question: What about the “total protein half-life in vivo” value [12] of the same sequence?
Answer: The value was 5.84 ± 0.098 h.

Question: For “MKSEVLSVKEKIGYGMGDAASHIIFDNVMLYMMFFYTDIFGIPAGFVGTMFLVARALDAISDPCMGLLADRTRSRWGKFRPWVLFGALPFGIVCVLAYSTPDLSMNGKMIYAAITYTLLTLLYTVVNIPYCALGGVITNDPTQRISLQSWRFVLATAGGMLSTVLMMPLVNLIGGDNKPLGFQGGIAVLSVVAFMMLAFCFFTTKERVEAPPTTTSMREDLRDIWQNDQWRIVGLLTIFNILAVCVRGGAMMYYVTWILGTPEVFVAFLTTYCVGNLIGSALAKPLTDWKCKVTIFWWTNALLAVISLAMFFVPMQASITMFVFIFVIGVLHQLVTPIQWVMMSDTVDYGEWCNGKRLTGISFAGTLFVLKLGLAFGGALIGWMLAYGGYDAAEKAQNSATISIIIALFTIVPAICYLLSAIIAKRYYSLTTHNLKTVMEQLAQGKRRCQQQFTSQEVQN”, which “total protein half-life in vivo” value [1] is on record?
Answer: The value was 3.79 ± 0.88 h.

Question: And the “total protein half-life in vivo” value [2]?
Answer: The value was 2.71 ± 0.12 h.

Question: What about the “total protein half-life in vivo” value [3] of the same sequence?
Answer: Its value is 2.34 ± 0.037 h.

Question: What about the “total protein half-life in vivo” value [4] of the same sequence?
Answer: Its value is 2.68 h.

Question: And the “total protein half-life in vivo” value [6]?
Answer: Its value is 2.83 ± 0.12 h.

Question: And the “total protein half-life in vivo” value [7]?
Answer: The value was 4.26 ± 0.11 h.

Question: What about the “total protein half-life in vivo” value [8] of the same sequence?
Answer: Its value is 8.19 ± 1.7 h.

Question: And the “total protein half-life in vivo” value [9]?
Answer: Its value is 2.823 ± 0.011 h.

Question: What about the “total protein half-life in vivo” value [10] of the same sequence?
Answer: Its value is 4.72 h.

Question: What about the “total protein half-life in vivo” value [11] of the same sequence?
Answer: The value was 5.34 ± 0.062 h.

Question: And the “total protein half-life in vivo” value [12]?
Answer: The value was 9.79 ± 1.1 h.

Question: For “MANSITADEIREQFSQAMSAMYQQEVPQYGTLLELVADVNLAVLENNPQLHEKMVNADELARLNVERHGAIRVGTAQELATLRRMFAIMGMYPVSYYDLSQAGVPVHSTAFRPIDDASLARNPFRVFTSLLRLELIENEILRQKAAEILRQRDIFTPRCRQLLEEYEQQGGFNETQAQEFVQEALETFRWHQSATVDEETYRALHNEHRLIADVVCFPGCHINHLTPRTLDIDRVQSMMPECGIEPKILIEGPPRREVPILLRQTSFKALEETVLFAGQKQGTHTARFGEIEQRGVALTPKGRQLYDDLLRNAGTGQDNLTHQMHLQETFRTFPDSEFLMRQQGLAWFRYRLTPSGEAHRQAIHPGDDPQPLIERGWVVAQPITYEDFLPVSAAGIFQSNLGNETQTRSHGNASREAFEQALGCPVLDEFQLYQEAEERSKRRCGLL”, which “total protein half-life in vivo” value [1] is on record?
Answer: The value was 4.93 ± 0.48 h.

Question: And the “total protein half-life in vivo” value [2]?
Answer: The value was 4.86 ± 2.3 h.

Question: What about the “total protein half-life in vivo” value [3] of the same sequence?
Answer: Its value is 3.34 h.

Question: And the “total protein half-life in vivo” value [4]?
Answer: Its value is 3.29 ± 0.28 h.

Question: And the “total protein half-life in vivo” value [5]?
Answer: Its value is 3.09 ± 0.13 h.

Question: What about the “total protein half-life in vivo” value [6] of the same sequence?
Answer: The value was 1.93 ± 0.29 h.

Question: And the “total protein half-life in vivo” value [7]?
Answer: The value was 3.5 ± 0.098 h.

Question: What about the “total protein half-life in vivo” value [8] of the same sequence?
Answer: Its value is 5.086 ± 0.02 h.

Question: And the “total protein half-life in vivo” value [9]?
Answer: The value was 3.41 ± 0.23 h.

Question: What about the “total protein half-life in vivo” value [10] of the same sequence?
Answer: The value was 4.83 ± 0.42 h.

Question: What about the “total protein half-life in vivo” value [11] of the same sequence?
Answer: Its value is 3.15 ± 0.84 h.

Question: And the “total protein half-life in vivo” value [12]?
Answer: The value was 6.32 ± 0.42 h.

From the supplement of paper PMC11246515
